In publication PMC4622058 one finds fold difference in binding against IgG1 and fold decrease in binding against IgG1 data, which are given here for three substances.

This assay addresses Human FcγRIIIa V158 (human). Briefly: AlphaScreen or HTRF. Background: Alpha assays give light when donor and acceptor beads are brought close together.

Bounds are passed on as bounds.

Consider “anti-CD142 mAb variant 2h-AEA (IgG1 with IgG2 lower hinge, K326A/I332E/E333A) (antibody)”, for which the fold difference in binding against IgG1 was < 2 fold.

On to “anti-CD142 mAb variant 2h-DAA (IgG1 with IgG2 lower hinge, S239D/K326A/E333A) (antibody)”, for which the fold difference in binding against IgG1 was < 2 fold. For “anti-CD142 mAb with human IgG2 constant region (antibody)”, the fold decrease in binding against IgG1 is > 30 fold.
